Experimental data reported in the RNAGym collection of RNA variant scans (doi:10.1021/acssynbio.7b00057).

B1: Pistol ribozyme (parent)
chain: GGGUCGUUGUUCCAUAAUCGCGUGGAUAUGGCACGCAAGUUUCUACCGGGCACCGUAAAUGUCCGACUGGAGCCGUUCGGGCGGCUAUAAACAGACCUCAGGCCCGAAGCGUGGCGGCACCUGCCGCCGGUGGUAAAAAAGAUCGGAAGAGCACACGUCU

Variants of: B1
Assay: aptazyme ON/OFF ratio, guanine; higher = stronger switching; co-transcriptional cleavage with and without guanine

Aptazyme ON/OFF ratio, 1.07:
U8C G9C U11A C12G C13U
U8C G9C U11A C13U
U8C G9C U11C C12U C13U
U8C G9C U10C U11G C12U
U8C G9C U11A C12U C13U
U8C G9C U11C C12A C13G
U8C G9C U10G U11G C13U
U8C G9C U10G U11G C12U C13A

Aptazyme ON/OFF ratio, 1.29:
U8C G9U U10A C13A

Aptazyme ON/OFF ratio, 1.03:
U8C G9C U11G
U8C G9U C13G
U8C G9C U11C C12A C13A

Aptazyme ON/OFF ratio, 1.17:
U8C G9C U10G U11C C12G C13U
U8C G9U U10A C12G C13U
U8C G9U U10A C12A C13A
U8C G9C U10G U11C C12U C13A
U8C G9C U11A C12G C13A
U8C G9U C12G C13G
U8C G9C U10C U11G C13U

Aptazyme ON/OFF ratio, 1.42:
U8C G9U U10A
U8C G9U C12G
U8C G9U C12U

Aptazyme ON/OFF ratio, 0.966:
U8C G9C U10C U11C C12U

Aptazyme ON/OFF ratio, 1.1:
U8C G9C U10G U11G C12G C13G
U8C G9C U11G C13U
U8C G9C U10G C13A
U8C G9C U11G C12A C13U
U8C G9C U10C U11G C12A
U8C G9C U10C U11G C12U C13G
U8C G9C U10G U11A
U8C G9C U11G C12U C13U
U8C G9C U10G U11A C12A C13G
U8C G9C U10G U11A C12A C13U

Aptazyme ON/OFF ratio, 1.21:
U8C G9U C12G C13A
U8C G9C U10G U11A C12A
U8C G9C U10G U11C C12G

Aptazyme ON/OFF ratio, 1.16:
U8C G9C U10C U11G C12A C13G
U8C G9C U10G U11A C12A C13A

Aptazyme ON/OFF ratio, 1.25:
U8C G9U C12U C13A
U8C G9U C12G C13U

Aptazyme ON/OFF ratio, 1.19:
U8C G9C U10G U11C C12A C13A
U8C G9U U10A C12A C13G
U8C G9C U11G C13G
U8C G9C U10G U11A C13G
U8C G9C U10G C13G
U8C G9C U10G U11C C12U C13U
U8C G9U C12A C13U
U8C G9C U10G C12G
U8C G9C U11G C12G

Aptazyme ON/OFF ratio, 1.3:
U8C G9C U10G U11C C13A

Aptazyme ON/OFF ratio, 1.27:
U8C G9U U10A C12G C13A
U8C G9U U10A C12G
U8C G9U C13U

Aptazyme ON/OFF ratio, 1.2:
U8C G9C U10C U11G C12A C13A
U8C G9C U10G U11C C13U
U8C G9C U11C C12G C13A
U8C G9C U10G C12A
U8C G9U U10A C12U C13G

Aptazyme ON/OFF ratio, 1.08:
U8C G9C U10G U11A C12G C13A
U8C G9U C13A
U8C G9C U11A C12U
U8C G9C U10C U11G C12G C13U
U8C G9C U11C C12U
U8C G9C U11C C12A
U8C G9C U10G U11A C12U C13G
U8C G9C U10G U11G C12A C13U
U8C G9C U10G U11G C12A C13A
U8C G9C U10G C12G C13A
U8C G9C U10G C12A C13G

Aptazyme ON/OFF ratio, 0.959:
U8C G9U C12U C13U

Aptazyme ON/OFF ratio, 2.46:
U8C G9U

Aptazyme ON/OFF ratio, 1.14:
U8C G9C U10G U11C C12G C13A
U8C G9C U10G U11C C12A C13G
U8C G9C U11G C12A C13G
U8C G9C U10C U11G C13A

Aptazyme ON/OFF ratio, 1.11:
U8C G9C U10G U11G C12G C13U
U8C G9C U10G U11A C12G C13U
U8C G9C U10G C13U
U8C G9C U10C U11G C12G
U8C G9C U10G U11G C12A C13G
U8C G9C U10G U11G
U8C G9C U11C C13A
U8C G9C U10G U11G C13A
U8C G9C U10G U11G C13G
U8C G9C U11G C12U C13G

Aptazyme ON/OFF ratio, 1.31:
U8C G9C U10C U11G C13G

Aptazyme ON/OFF ratio, 1:
U8C G9C U10C U11C C12U C13G

Aptazyme ON/OFF ratio, 1.43:
U8C G9C U10G

Aptazyme ON/OFF ratio, 1.06:
U8C G9C U11C
U8C G9C U10G U11A C13U
U8C G9C U10G U11A C12U C13A
U8C G9C U10C U11G C12U C13U
U8C G9C U10G C12U C13G
U8C G9U U10A C13G
U8C G9C U11C C12A C13U

Aptazyme ON/OFF ratio, 1.09:
U8C G9C U11G C12G C13U
U8C G9C U11A C12A C13A
U8C G9C U11G C13A
U8C G9C U10G U11C C12U C13G
U8C G9C U11G C12A C13A
U8C G9C U10C U11G C12G C13G
U8C G9C U10G U11G C12U
U8C G9U U10A C12U C13U
U8C G9C U10G U11G C12U C13U
U8C G9C U10G C12G C13U
U8C G9C U10G C12G C13G
U8C G9C U11G C12U C13A
U8C G9C U10G C12A C13U

Aptazyme ON/OFF ratio, 1.56:
U8C G9U U10A C12U

Aptazyme ON/OFF ratio, 1.28:
U8C G9U C12A C13A
U8C G9C U10G C12U C13U

Aptazyme ON/OFF ratio, 0.96:
U8C G9C U10C U11C C13U

Aptazyme ON/OFF ratio, 1.13:
U8C G9U U10A C12G C13G
U8C G9C U10G U11C C12A C13U
U8C G9U U10A C12A C13U
U8C G9C U10G U11G C12G C13A
U8C G9C U10G U11A C13A
U8C G9C U10G U11A C12G C13G
U8C G9C U10C U11G C12G C13A
U8C G9C U11G C12A
U8C G9C U10G U11G C12G
U8C G9C U10G U11G C12U C13G
U8C G9C U10G C12A C13A

Aptazyme ON/OFF ratio, 1.22:
U8C G9C U10G U11C C13G
U8C G9C U11A C12A
U8C G9C U10G U11C C12A

Aptazyme ON/OFF ratio, 1.15:
U8C G9C U10C U11G C12A C13U
U8C G9C U11A C12G C13G
U8C G9C U11C C12G C13U
U8C G9C U10G U11G C12A

Aptazyme ON/OFF ratio, 1.01:
U8C G9C U10C U11C C13A
U8C G9C U10C U11C C12U C13U

Aptazyme ON/OFF ratio, 1.26:
U8C G9C U11C C12G C13G
U8C G9C U11C C12G
U8C G9C U10G U11A C12G

Aptazyme ON/OFF ratio, 1.02:
U8C G9C U11C C12U C13G
U8C G9C U10G U11A C12U

Aptazyme ON/OFF ratio, 1.18:
U8C G9C U10G U11C C12G C13G
U8C G9C U11A
U8C G9C U11A C12G
U8C G9U U10A C12U C13A

Aptazyme ON/OFF ratio, 1.04:
U8C G9U C12U C13G
U8C G9C U11A C13A
U8C G9C U10G U11A C12U C13U
U8C G9C U10C U11C C13G
U8C G9C U11C C13U
U8C G9C U11C C13G

Aptazyme ON/OFF ratio, 1.12:
U8C G9C U11G C12G C13A
U8C G9C U11G C12G C13G
U8C G9C U11A C12A C13G
U8C G9U C12A C13G
U8C G9C U11A C13G
U8C G9C U10G C12U
U8C G9C U11G C12U
U8C G9C U11A C12U C13G
U8C G9C U11A C12U C13A
U8C G9C U10G C12U C13A
U8C G9C U10G U11C

Aptazyme ON/OFF ratio, 1.37:
U8C G9U U10A C13U
U8C G9U C12A

Aptazyme ON/OFF ratio, 0.956:
U8C G9C U10C U11G

Aptazyme ON/OFF ratio, 1.8:
U8C G9U U10A C12A

Aptazyme ON/OFF ratio, 1.05:
U8C G9C U11A C12A C13U
U8C G9C U11C C12U C13A
U8C G9C U10C U11G C12U C13A
U8C G9C U10G U11C C12U
U8C G9C U10C U11C C12U C13A
